This is an account of results in the DeepSol protein solubility set.

This data set can be described thus: soluble on expression in E. coli; label from the status in PepcDB or PDB records.
As for “GPGSMGMSVTMINAIPLLRSMHANCVCPVCFEVFKKPVCFPCGHILCRACATRCIAARPRCPLCNQAVPNMRHCAPLPQLSLLCVLTREVGLRASGLQLRSSVQNAATPLSHRNHDSSMKRHRGATADDAVEETQGEHQAPRPRRSSLSPPPEQRPFLSLREPRASHRVANAVAATEGSTANHAQHTSLPELLRAAAGETQRLQSESPPPPLLMVGEGDDVLLGEAPHRSIIAQVTTSLPSAIAHRVGDSGALGRGQDQPPTPTPPPALSPSPAPFSTPLQLMCNHITDHADQLDSTPLLSPLPFTAFAVVEAASVTAAASVTHRSAQASSRVLATEHASNAKKASSWSLWRRGRGVIHCTLTPPAARLLARQSVVADGAGRGKTEAASKTASSSSAASADTAASLWHRFGCCALCGLDVVQRAAVRQRLQHLLRSPTAHCDPAELAMQTEESLSLLLGPLWGVCCEVQEHSTNIAQSQVSTCEGEYTTTELDAVQGSYCCPCRGEVTAHHVTGVAHHNCLAWAGLLDFFTNTSLEDLPAAAAAGVYFVPSMTASLHMTVPLQDPLGVLAARTSGRVARWQLLAATLCHMHQRDADEESELGKRVQTSGESGAEGPLMTPRCALCEDGAPLLASNSPSFPFGAGLRVCEGTERGESSCGQQYHYPCALLAGASACIIFGLEDECNVLDASASTPVRDRSAGGKRRGVERPVEVWCGVCHERHEVCRRRV”, the “soluble on expression in E. coli” value was “not soluble”. The result for “MAFRKRRHDSEGDSDEERLPINKDEDEDLKAEPAKKSKNMWSDMLLEEQLLEKGQQINLDRTSRKQPNVSRGPESYLMPQDEFQRKQSRNANQKKKNEVFDKPVVLVTPASDDLFGDAPSALNEDFGVKKNDVKLPKDDEAGWWGKKGANKRYNDRMGYHSGGPRQPYPRKTTGQLMASEYSLESMVAAEFAPNLSTKELGTQMAAAMGEKDPDTVKKITNAIGSELSIKLFNETKEIEQNGGMKTADGSRRRTPGGVFITLFKMDSSVSREIKDGIFGDMRNAEKERTKKKKGEKQFTRQLEDMKKTMELAAQAETDLANEEQLATAVDAPFSDDAVDMV” reads “not soluble”; that for “MGSDKIHHHHHHAGEKLVESAAAPRIINIINFIRQTDYRVENADSLLYETVCEQVKLVNKYDLPATFLLQYDALINPLYQDLLKSKLNAHSEIGAWWELTQPQIEAAGIKWRGEHSWVSHANIAFSTGYTKEERERLVDVYMAKFKEIFGTYPKSVGSWFIDAHTLGYMYDKYKIVASCNCKDQVGTDGYTLWGGYWNQAYYPSRVNAYMPAQTEEGQIPVPIFRMLGSDPIYQYDDGLGQERQGVISLEPVYEKAGMDRRWVDYFLESIVNQPCLAFNYAQAGQENSFTWSNMSKGLEMQIPILDSLRKENKIRVETLGESGAWFKECFKVTPPTAVTTLTDVRGEGNKTVWFNSRYYRANLLWERGTFRFRDIHLFDEGYKSAYMEKPGDGNQFLFYTLPVVDGFMWSEGLDRAGLRIVRLDKDGDKEELTLDHPVVTEIGKDTLVVSAEDSKGHPFKITFYETRFEVAALSKEADLSWALELKVAAGKELPFTVIEDKAVNASFDGFNYVITCKKGHIRKPESGSDYVFRILPSDKEIVINCTNTRLNCTHEK”, “not soluble”; that for “MSLQEELSVLLKAQYPLIYLVTSEEERAEQAVYRIVQEVTRHQRLFVWTVTHGFREYGVAQQKTHHNTMSPEAAIEWVVRQEPGIFIFKDLHPFISSPAVTRWLREAIASFKGTEKAIILMSPYQETPIELEKDVVVLDFALPDLVTLDGVLGQQLGKSRHALGEDSREKLLKAALGLTKDEAEKVYRKAYVKAGQLTEGEVEIVLSEKKQMIRRNEGHHHHHH”, “soluble”. For the sequence “SRQWSQTLCEMSESEDDDIPQLSSHTLAALQEFYAEQKQSVNPRGDDKYNVGVIEENWQLSQFWYSQDTALRLAREAIDAAGEGGRIACVSAPSVYQKLRELCREDSSVYIFEYDRRFAIYGDEFIFYDYNHPLELPERIAAHSFDLVVADPPYLSEECLRKTSETIQFLTRGKILLCTGAIMEEQAAQLLGVKMCKFIPEHSRNLANEFRCYTNYDSGLDCEA”, the “soluble on expression in E. coli” value was “soluble”. The result for “MLELYHRKKLFNLLKAPLKKKPFFFIYNTKQTYRDKTPMRNIDFSKLHLSEDVRANEKVHNKRNLFMSNKIIHYLPPKRHD” reads “not soluble”; that for “VNDNQLAPVARPRSPLELLDTVPDSLLRRLKQYSGRLATEAVSAMQERLPFFADLEASQRASVALVVQTAVVNFVEWMHDPHSDVGYTAQAFELVPQDLTRRIALRQTVDMVRVTMEFFEEVVPLLARSEEQLTALTVGILKYSRDLAFTAATAYADAAEARGTWDSRMEASVVDAVVRGDTGPELLSRAAALNWDTTAPATVLVGTPAPGPNGSNSDGDSERASQDVRDTAARHGRAALTDVHGTWLVAIVSGQLSPTEKFLKDLLAAFADAPVVIGPTAPMLTAAHRSASEAISGMNAVAGWRGAPRPVLARELLPERALMGDASAIVALHTDVMRPLADAGPTLIETLDAYLDCGGAIEACARKLFVHPNTVRYRLKRITDFTGRDPTQPRDAYVLRVAATVGQLNYPTPH”, “not soluble”. With “MAHHHHHHMNPHPVEPRDQIAELLVESPLFSFNCAHFIAFKGFRETLHGHNYNVSLRLRGNIQGDGYVIDFSILKEKVRKVCKQLDHHFILPMYSDVLNIQEVNDNFKITCEDNSEYSFPKRDCVQIPIKHSSTEEIGLYILNQLIEEIDLPFLKTRSVNYMEVTVSESPSQKATVHRNI”, the “soluble on expression in E. coli” value is “soluble”. Then “GPGSMSADKVVIIGAGPTGLGAAVRLMELKHANFHLYDGGTVPGGLSRSVLDDKGFLWDMGGHVIFSHYAYFDDVMNLAISDWNTLQRESWVRCSGAWVPYPFQSNIHRLPPEVRDTCLKGIEEAEAARSVAAPEKPQNFAEYVSRHFGEGIAEVFMRPYNFKVWAVPLHLMSTEWVGERVAAVNVERIRENIQLKRDDVGWGPNATFRFPKSGGTGAIYKAVWKMIPEAHKTLGPQCRVTKVNPITKTLTMANGEAVSYDALVSTMPLDDLLLAVAAGVEEDAETASASALKAPRLREIADKMVYSSTHIIGIGVKGCPPPEMRTACWLYFPEDGIPFYRATIFSRYADTNAPEGHWSILLEVSQNVLYKPVNVDTIVEDCIAGLRTVTLLRPEDEIVSRWHHMEKKGYPIPFVGRNELLEEVQPVLRDKYQIYSRGRFGAWRYEVANQDHSLMQGVEAVGHIFYGTDEDTVHKPEKVNTRRGEMRCTWSSTAS”, with “soluble”; and “MSLNNIQIRNYQPGDFQQLCAIFIRAVTMTASQHYSPQQISAWAQIDESRWKEKLAKSQVWVAIINAQPVGFISRIEHYIDMLFVDPEYTRRGVASALLKPLIKSESELTVDASITAKPFFERYGFQTVKQQRVECRGAWFTNFYMRYKPQHEGGSHHHHHH”, with “soluble”; and “MSDNDIIDDDVLNIEDMTGDDADLSAIEGDLNEIEEEQKKLKAIQNEMVGHMNLNTSSQSNSSQSLLTPEEKAEADAKSVYVGNVDYGATAEEIEQHFHGCGSVSRVTIQCDRFSGHPKGFAYVEFTEKEGMQNALAMTDSLLRGRQIKVDPKRTNKPGMSTTNRPPFRGRGGRGRGNVIVKYVYAGGFRPRGRGARRRPGFAPY”, with “soluble”. The result for “MAHHHHHHMHRQTAALQGSTVPAFCELLHSRGEAWLGLLGAALALPVHNATADGPSPNSFATPPSCSPSDAPALSEACSRLLSTYFIAAKAQCVEGADASMMKTLVKLTLAHTEWRTRLAMALPQRTGHPTAASSPTRAVTALIDAVAAVGLCDATLHFFTAKTLLGECVFRLLESEAWPTWAPEYCSAPLPQQAEHGVSGAFVHGEGGEPPDWQRLYAEVSHRTRLVPASMHTTEPPSPAFSILQLAQDLQDHLERTVQQSHLALSFTEGGV” reads “not soluble”.

On to “MPADIMEKNSSSPVAASVNTTPDKPKTASEHRKSSKPIMEKRRRARINESLSQLKTLILDALKKDSSRHSKLEKADILEMTVKHLRNLQRAQMTAALSTDPSVLGKYRAGFSECMNEVTRFLSTCEGVNTEVRTRLLGHLANCMTQINAMTYPGQPHPALQAPPPPPPGPGGPQHAPFAPPPPLVPIPGGAAPPPGGAPCKLGSQAGEAAKVFGGFQVVPAPDGQFAFLIPNGAFAHSGPVIPVYTSNSGTSVGPNAVSPSSGPSLTADSMWRPWRN”, for which the “soluble on expression in E. coli” value is listed as “soluble”. Then “MGSDKIHHHHHHMGETNQQGVKNPLQTKEVAERQAKKEKQVVFIYYDHEPTYKLLEDQLVDQGDFELVSTNQSEDAVAILGSLSIDSVVFINTAKSKQMYQLYEKTSGSHHYLHAPFFYIGECSHEEMGQIFANGHEFISSPFNLETFYLKMKAKLDHCTRIKNDRQIDLVTQLYTERFLEKMFHLQVANLVRFKTSFTVIFLSLYNYYELKTKYGLTIADQIVATVSDYIKSQVRDSDLAFRMDAEDEIAVILPNGGQTEAGYFVRRVFEHIPPVTTTENGEPLQFFIELSASIVEINNADVTYEEMLEKGKEALQEAVFKGASTIETVNDFQEPNVEKIKVTVIVEDQVIRSVLVNLLQRLTLEYFELDVQTFFDGEALLESSWHRSAHTHIVIMDDVLPKRNGLEMVHELRKMPNNEKYIVMMLSNRKTEEDVTYAFEMGVDDYITKPFNVKFVESRLKRYLKRLR”, with “not soluble”. Then “MHKSIAVFEVEGGNDKQFNGHRKDTLPIVDAIKEKGWHAEVVFYRPEWSEGLFEYVSQNFDGYISRVNPGNIPGGEKGYFDLLTKLSEAGLVGMSTPAEMMAYGAKDALVKLNDTDLVPSDTAAYYDVETFHNTFPTSLSYGERVLKQNRGSTGSGIWRVQLEDKELAASVAPGTALPLNTKLRCTEAVDNHTEIRELGEFMDFCDQYIVGDNGMLVDMRFMPRIVEGEIRILMVGPHPVFVVHKKPAAGGDNFSATLFSGAKYTYDKPEAWQELVDMFAAARPVIAEKLGGDNIPLIWTADFMLADGENGEDTYVLGEINCSCVGFTSELDMGIQELVAQEAVERVEKKHA”, with “not soluble”. The result for “MGSDKIHHHHHHMAERFRPLAMAGLAALALVLAGCGDTLESFGGPTMGSTYSIKYVRGASAPDVQTAKAAVEAILAEVDRQMSTYRDDSLVSRFNALPAQSCMELPLPMLELLRYGGELSEQSQGAFDMTVEPLMNLWGFGPQARVEKVPSAEQIAAVRRDVGHRHLRIDGQRLCKDAAVQLDFDSIAAGYTVDAVGERLKELGVRSYLAEITGELKAEGRKPDGTPWRIAIEAPREGQRVAQQVLALDGYGVSTSGDYRNYFEENGQRYSHTFDPRTGAPIDHHLASVTVIDPSTRNADGLSTLLMVLGPEEGYRFAEKHRLAALFVSRQGNGFDSRTTPRYEQLFGNQGERP” reads “not soluble”; that for “MDAFIVDPVQGELYSGLSHTELADIIRLADSVENQLNGGNSFLDVFSTYMGQVISEFMHSNDNRIELLQRRLHSCSFLVNIEEMSYIDEALQCPITLAIPQRGVFLRNAEGSRVCSLYDEMALSRIINDGMHHPLSREPITLSMLVAREQCEFDCSIGHFTVRSDCYSV”, “soluble”; that for “MASGKRKGLSFDDKKTRLLELFNETCDFYTLKELEKIAPKLKGIITQSVKDVLQSLVDDDLVNSDKCGVQTIYWCLPSEAVAKRQRRLDALQQQLAEKRQKLTALQRQLVQVQAGREDSVERTAVLERLAACEAAWRERQRTLESYLECDPDVLAQRETETKTLIEQANRWTDNLYVIRSYVQRNLGVDLDLFDQQFELKPALQYLE”, “not soluble”.
